± gives the half width of the 95% confidence interval.
Experiments:
[1] = folding stability dG unfold (combined trypsin and chymotrypsin); higher = more stable
Method in brief: (§1)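 Unfolding free energy was derived, per protease or combined, against a sequence-predicted unfolded-state K50 and a shared folded-state K50, starting from K50 inferred by Bayesian fitting of sequencing counts. Digestion with trypsin and chymotrypsin was carried out on designed mini-proteins under 80 residues without cysteine in a PA-tagged cDNA display construct. Only designs with AlphaFold2 dimer inter-PAE above 15 were kept.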

[2] = folding stability dG unfold from chymotrypsin proteolysis; higher = more stable
Method in brief: as §1

[3] = folding stability dG unfold from trypsin proteolysis; higher = more stable
Method in brief: as §1

Sequence	folding stability dG unfold [1] [kcal/mol]	folding stability dG unfold [2] [kcal/mol]	folding stability dG unfold [3] [kcal/mol]
SKKVKIVIKIKVEVTNKDGKKKTFEFTLVIELSEEEIEKLKKKIEDLLNELKKKYPNIKKVEITEIKILPSA [r9_436_TrROS_Hall]	4.31 ± 0.62	4.4 ± 0.32	3.59 ± 0.26
SKKVTLPIYFPETGEVVTIDLDELAKALGVDPDKLTLTVVSSGKGRVYRIEVFKDGIRIEEIGDVPPELLSA [r9_819_TrMRF]	2.63 ± 0.05	2.848 ± 0.017	2.2 ± 0.03
SKMYLVKIKIEVYKDGKLVKEEEIEIEVSEEEAKKLAEKLKEELPGYKVKIEIEVREIEPEDEELLKALESA [r9_782_TrROS_Hall]	3.61 ± 0.12	4.12 ± 0.054	2.69 ± 0.15
SKPGKTIMIMITMDNIKEFLEELPLEPNMEVEIMFMNPNGKMRTLTIRNGEIDSIEPFPNFPDYWMIMIKSA [r9_849_TrROS]	2.78 ± 0.24	2.92 ± 0.07	2.69 ± 0.071
SKPVLVKVKIVTKNKNGKKIEKELVIEMSEEDLEKLLEELLNDPNLKDVEKIEIEVVDAETGEVYTFTFPSA [r9_97_TrROS_Hall]	2.89 ± 0.14	3.15 ± 0.062	2.01 ± 0.19
SKTIVIELENIEDMTKEELKNLIKELAEKGETVKVTILNKDGKEVKTIEIKPGEIVPFPKGSKVLIKIEKSA [r9_264_TrROS_Hall]	1.37 ± 0.15	1.49 ± 0.036	1.42 ± 0.062
SKTYLVKVTIEYGGKTIEIEVEVETLEEALAAVRAALPPEERAQLPPDAKVTVEVYELPEVDEETGELLESA [r9_111_TrROS_Hall]	3.84 ± 0.059	4.2 ± 0.048	2.83 ± 0.07
SKTYTAEEIKKLFPNIKKVEVKDGKVRLTVENENGEKFEIEITFEAPKPEPEVEEEVEKKKEEELSEEDLSA [r9_427_TrROS_Hall]	1.65 ± 0.31	2.62 ± 0.14	1.28 ± 0.061
SKWTIDIDITYYPEYGVITVTIRYPNSWEQARFDVRSFIHEAGMPIKLEDIEIEQVEGWYEITYTIRIPPSA [r9_164_TrROS]	3.78 ± 0.39	3.88 ± 0.13	3.49 ± 0.19
SLDPGEPVYRIKVKIEMWNPNGKPIAEFTIPIRTLEEAKEAIKEMAREIAEKMGHPDMPIRIKDIEIEPYSA [r9_376_TrROS]	2.27 ± 0.099	2.21 ± 0.045	2.29 ± 0.033
SLEEKIKEAIENSPPNSEVIVPLPDDRTVKITVTPETVTGDGRRRLRIKVTITIYDPSGTKLGEKVLEIPLS [r1_386_JUSTAS]	3.69 ± 0.16	4.12 ± 0.17	2.66 ± 0.052
SLEVAAELGLSVSSLEELETDPEKGTRLLRLTAPTPGATVEVLVEVTTRKDSKGETVPEVRVLAVRTVAPSA [r9_613_JUSTAS]	1.26 ± 0.07	1.33 ± 0.077	1.15 ± 0.03
SLGPNEDAILEEEAIIDIDPEAFRKAFGFDVPEDTKVLIITRRRVPANGDIETDPEIYIYDPKTKKFYPISA [r9_349_TrMRF]	2.29 ± 0.16	2.34 ± 0.067	2.05 ± 0.046
SLIPIRPLATSPSGDLLIEVPAEEDLVEEIKKYLKEKFPGYTPVEVKPVESPPLYLVLFSHPSGKKVWLGSA [r9_1164_JUSTAS]	1.24 ± 0.07	1.35 ± 0.082	0.967 ± 0.03
SLLELAKQANGPLKINVKSEWVTLPDGTPVEIINVEVSQDPNSDVATVTKTVVDPDKDTSSTSTSTIPLGSS [r1_448_JUSTAS]	-0.0266 ± 0.14	0.316 ± 0.077	-0.95 ± 0.17
SLPPSLTYTLKLSHPDGSTVTATVFPGGSLRVTVYAPGGVKVAESEYPVDDLEALMKALGIKEVLSMELASA [r9_1107_JUSTAS]	2.67 ± 0.13	2.85 ± 0.071	1.93 ± 0.082
SMEEAIEEAIKKNEEAIAAGGGPVKVELEVPGYRIDLTFSPNGLKITNIEEKNSPDGIPSVKSTSDVPPPSA [r9_308_JUSTAS]	0.284 ± 0.14	-0.503 ± 0.11	0.845 ± 0.085
SMEIKIEITYDKDTNYLVIKVTIKLKTKTVDKKTKKVTEKEEEITLTLVIKLKPLKPGQKLKLEIKLFPESA [r9_1058_TrROS_Hall]	4.4 ± 0.44	4.93 ± 0.33	3.24 ± 0.22
SMEILEMDIEEILSLLPEDIHPDVPYTLTVPGLEIRILDVAPVREEEGGPRPTTVIEVFLPDGPVVFPLESA [r9_279_TrMRF]	1.11 ± 0.12	1.26 ± 0.069	0.872 ± 0.042
SMEPGERYRITATRKDGSRVEVEAIPGGVLRARVYLPNGELVGEAEFPVDRPVELLEALGLDELVSVEPESA [r9_1107_TrMRF]	2.32 ± 0.086	2.42 ± 0.043	2.17 ± 0.051
SMFRIRFKDGSEFDIELNEDGELTITNKNGKKITLTFKTKEEALKAAEELKKKYPNMKVEIEEVSPEELKSA [r9_1206_TrROS_Hall]	3.13 ± 0.12	3.504 ± 0.016	2.6 ± 0.059

Sequence	folding stability dG unfold [1] [kcal/mol]	folding stability dG unfold [2] [kcal/mol]	folding stability dG unfold [3] [kcal/mol]
SMFRPFPLPDGRPAYDFIIPGLELASSFFPETGRPVLVLRPGGRLGAAPLFAADLDVLFSRPPLVAVEPDSA [r9_205_TrMRF]	0.999 ± 0.14	1.37 ± 0.17	0.634 ± 0.11
SMGSITITLPATPEELRELLREKGISPELAPSWEEVKEALKKAFPKNVTVTINPKSPVSEEAAKAAREGSSA [r9_74_JUSTAS]	1.13 ± 0.064	1.45 ± 0.017	0.462 ± 0.038
SMGSTTVTVELEFEVEDPSVFPPDTTVDVPEEVIEKLRAEGYTVTEITTTVEPTPSGRVRVRVTMTVRVDSA [r9_465_JUSTAS]	2.93 ± 0.095	2.77 ± 0.049	2.95 ± 0.05
SMIEELSDEEKVALAKELAEEIKKAREGGKPEEIPELIKRLKEVLEAASPPVQEEVLALIKEIKIPPKELSA [r9_182_JUSTAS]	2.23 ± 0.076	1.7 ± 0.04	2.82 ± 0.065
SMIKPGEKIKKIKLKLENGEEVEATLVKNEDGSLVLFIKVDGEVYVFTFNPDGEIKIEKVSKEEAEKLLKSA [r9_1144_TrROS_Hall]	3.4 ± 0.15	3.79 ± 0.046	2.05 ± 0.097
SMITLELTDPATGAKYTLTIDPSTGKAKVTRTPPTGPPVSGTGTIEGNTLTITLYEPSGKPLATLTLPLPSA [r9_665_JUSTAS]	5.6 ± 0.13	5.53 ± 0.1	3.89 ± 0.11
SMKEGIEAAIDELKEALEKGEGEVRVVLRFEGFVLEITIKPKGYKIEDIEIEPLPDDIPFIREREEVPPESA [r9_308_TrMRF]	1.52 ± 0.24	1.58 ± 0.19	1.23 ± 0.051
SMKEKALEKAKEKAEEIKKKYSNVKVKVEVKVEITPKGEIKITYKVVIEKPEKEKPYWVKYPNGPWKKIGSA [r9_82_JUSTAS]	1.5 ± 0.55	1.86 ± 0.54	1.2 ± 0.24
SMKELVKRIAERFPNFKVKIKPEKTGGKKYRTVRIENPDSGRDMEIVFTKNGDIQIEMPNGRRIPLEDILSA [r9_1176_TrROS]	1.36 ± 0.059	1.1 ± 0.077	1.46 ± 0.018
SMKEVEKREFPDGTTVTFSKSSSPVITIKVTTYSPVPNTSELSSSESTYTFPLPPGKPLTLEEVLKKVLESA [r9_614_JUSTAS]	1.02 ± 0.13	1.38 ± 0.21	0.54 ± 0.035
SMKFTITLSNPVDGTTETIPLDVPLEELVKIIKEAHEKGGTVTITGLPEELAKEIAEKSGLDVSINPAPGSA [r9_1207_JUSTAS]	2.85 ± 0.14	2.57 ± 0.053	3.13 ± 0.14
SMKIEFLDVKEDGTIVIRLTLLRPDGKPPTKEEAAERAKEIAEILKPYFPDAEFTIEFDPESGEATIVIDSA [r9_485_TrMRF]	4.83 ± 0.33	4.7 ± 0.15	4.66 ± 0.57
SMKIIIEIEVEPGKTEEEIKEEAEALAKELAKKLGLPKEAKVKIEKVKLEDGKLRYIITIEVDGKTIEFESA [r9_776_TrROS_Hall]	3.75 ± 0.24	3.63 ± 0.064	3.72 ± 0.29
SMKIKSIKIEPIRIGDEEYFLIPIEVDGEEIPPEEVKRLVEELFEKLGLPLDPVLLEDPESDIVLVLARGSA [r9_717_TrMRF]	1.48 ± 0.16	1.34 ± 0.11	1.82 ± 0.053
SMKITATETPVGDKTTVTITVTIDPKEFPNKPPTEEFYKKIAEELMKKLGLKTYNISKTSSNTYTITIVDSA [r9_883_JUSTAS]	2.5 ± 0.049	2.5 ± 0.025	2.42 ± 0.061
SMKITIVENEDGSLKIKVYFKDTGKVVEKTFEKGETIEEQVKKLAEELEKELGLEVVDVEIVKLPPPEKPSA [r9_1205_TrROS_Hall]	3.57 ± 0.12	3.74 ± 0.096	2.63 ± 0.23
SMKITLEKGNYKIEIYKHPETGEIIAKVYDKNGKLVAVAHIKIEVEPDKDGKKIIKKIEIHVHILKEDPKSA [r9_262_TrMRF]	3.02 ± 0.31	3.77 ± 0.11	2.58 ± 0.22
SMKKILIIVPKEMSEEEVEALVKELLEKLGLPEGAEVEILTEEELEKNPELKKKLEEAEKKGADLVIIIPSA [r9_1147_TrROS_Hall]	3.12 ± 0.32	3 ± 0.2	3.39 ± 0.32
SMKKIVLIYPESVSPEEAEKIAEEILKKLGLKKGSPVTILPLSEYESNPEMRARIEEAKKKGADIIIEVKSA [r9_1147_JUSTAS]	2.78 ± 0.17	2.8 ± 0.1	2.91 ± 0.15
SMKKNTLTLTVKVKVTVTVVKKKKDGKEEVVKKETVEVTVKVTFLSKEELEKLKKELEKLKKELEELKKKSA [r9_1192_TrROS_Hall]	3.39 ± 0.75	4.7 ± 0.27	2.72 ± 0.27
SMKKNYKIKIEIIDIKIYNKNIPKNKPKYITIKAKITIYYKNKPYKYTIEIKYKIYNGKIYIIGSKIKPESA [r9_270_TrMRF]	3.66 ± 0.11	3.761 ± 0.025	3.36 ± 0.1

From the supplement of paper PMC12764529
